Experimental data published in patent publication US20240392271A1, “ENGINEERED CASX REPRESSOR SYSTEMS” (Scribe Therapeutics Inc., priority 2021, published 2024).
Numbering of substitutions follows the chain as printed.

Tests used:
[1] = Editing assays comparing gRNA scaffolds; settings: compared with gRNA scaffold 174
[2] = tested on: endogenous B2M (beta-2-microglobulin) gene; assay: B2M protein expression by HLA antibody flow cytometry, dXR constructs (Example 1, Table 14); assay type: cell-based, human; settings: for % cells expressing B2M protein: HEK293T cells, % of cells counted that were positive, biological triplicates
Text: dXR variant plasmids encoding constructs having the configuration of U6-gRNA+Ef1α-NLS-GGS-dCasX491-GGS-KRAB variant-NLS (dCasX491 refers to catalytically-dead CasX 491), were transiently transfected into HEK293T cells in an arrayed 96-well format. These constructs also contained a 2× FLAG sequence, as well as sequences encoding either a gRNA scaffold 174 (SEQ ID NO: 2238) having a spacer (spacer 7.37) targeting the endogenous B2M (beta-2-microglobulin) gene or a non-targeting control (spacer 0.0), which were all cloned upstream of a P2A-puromycin element on the plasmid. Four different effector domains were tested in addition to the “naked” dCasX491 (KRAB variant domains listed in Table 9; spacer sequences listed in Table 10; sequences of additional elements listed in Table 11). The corresponding protein sequences of the dXR molecule are listed in Table 13, and the generic configuration of the dXR molecule is illustrated in FIG. 38. Positive and negative controls based on a catalytically-dead Cas9 nuclease (with or without a ZNF10 repressor) with a B2M-targeting gRNA (spacer 7.14) or a non-targeting gRNA control (spacer 0.0) were included, along with a catalytically-active CasX 491 and gRNA with the same 7.37 and 0.0 spacers. Two days after transfection, total RNA was harvested, and reverse transcribed to generate a cDNA library. Changes in gene expression were calculated by performing qPCR on the targeted gene and a housekeeping gene as reference. Relative gene expression represents the amount of target-specific RNA relative to a reference gene normalized to the non-targeting guide condition for two biological replicates. In addition to the wells used for RNA measurements, a separate set of wells was harvested seven days post-transfection and analyzed for B2M protein expression. Expression of B2M protein was determined by using an antibody that detects the B2M-dependent HLA protein complex on the cell surface. […]

human B2M locus = assay: Editing (indel rate by NGS) at the B2M locus by catalytically-dead CasX variants (Example 8); assay type: cell-based; settings: HEK293T, B2M-targeting spacer 7.37, six days after transfection
HBEGF locus = assay type: cell-based, human; settings: dCasX491-KRAB lentiviral library, spacer 34.28, HEK293T, 2 ng/ml diphtheria toxin 48 hours

B1: 316 scaffold: chimeric RNA scaffold: scaffold 235 with extended stem loop of scaffold 174, SEQ ID NO: 59352, 89 nucleotides (nucleic acid)
guide: ACUGGCGCUUCUAUCUGAUUACUCUGAGCGCCAUCACCAGCGACUAUGUCGUAGUGGGUAAAGCUCCCUCUUCGGAGGGAGCAUCAGAG
modifications: listed as RNA, further chemistry not given here
performance in editing assays [1]: comparably or more favorably than gRNA scaffold 174

B2: dCasX491: catalytically-dead CasX 491, SEQ ID NO: 18 (protein)
chain: QEIKRINKIRRRLVKDSNTKKAGKTGPMKTLLVRVMTPDLRERLENLRKKPENIPQPISNTSRANLNKLLTDYTEMKKAILHVYWEEFQKDPVGLMSRVAQPASKKIDQNKLKPEMDEKGNLTTAGFACSQCGQPLFVYKLEQVSEKGKAYTNYFGRCNVAEHEKLILLAQLKPEKDSDEAVTYSLGKFGQRALDFYSIHVTKESTHPVKPLAQIAGNRYASGPVGKALSDACMGTIASFLSKYQDIIIEHQKVVKGNQKRLESLRELAGKENLEYPSVTLPPQPHTKEGVDAYNEVIARVRMWVNLNLWQKLKLSRDDAKPLLRLKGFPSFPLVERQANEVDWWDMVCNVKKLINEKKEDGKVFWQNLAGYKRQEALRPYLSSEEDRKKGKKFARYQLGDLLLHLEKKHGEDWGKVYDEAWERIDKKVEGLSKHIKLEEERRSEDAQSKAALTDWLRAKASFVIEGLKEADKDEFCRCELKLQKWYGDLRGKPFAIEAENSILDISGFSKQYNCAFIWQKDGVKKLNLYLIINYFKGGKLRFKKIKPEAFEANRFYTVINKKSGEIVPMEVNFNFDDPNLIILPLAFGKRQGREFIWNDLLSLETGSLKLANGRVIEKTLYNRRTRQDEPALFVALTFERREVLDSSNIKPMNLIGVARGENIPAVIALTDPEGCPLSRFKDSLGNPTHILRIGESYKEKQRTIQAKKEVEQRRAGGYSRKYASKAKNLADDMVRNTARDLLYYAVTQDAMLIFANLSRGFGRQGKRTFMAERQYTRMEDWLTAKLAYEGLSKTYLSKTLAQYTSKTCSNCGFTITSADYDRVLEKLKKTATGWMTTINGKELKVEGQITYYNRYKRQNVVKDLSVELDRLSEESVNNDISSWTKGRSGEALSLLKKRFSHRPVQEKFVCLNCGFETHAAEQAALNIARSWLFLRSQEYKKYQTNKTTGNTDKRAFVETWQSFYRKKLKEVWKPAV
% cells expressing B2M protein ([2]; B2M-targeting spacer 7.37): 85.70%
cells negative for the B2M protein ([2]; HEK293T, seven days post-transfection, B2M-targeting gRNA, HLA flow cytometry): ~10%
% cells expressing B2M protein ([2]; non-targeting spacer 0.0): 95.90%
percent editing at the B2M locus measured as indel rate by NGS (human B2M locus): did not exhibit editing

B3: DOMAIN_26749: KRAB domain derived from the king cobra, Ophiophagus hannah, SEQ ID NO: 57755; top 10 (protein)
chain: STPVTFEDVVVYFTAAEWVHLTNWQRDFYQAVMMETYELVASVAGDGVPMAEDEEGGVERPVWQYIPRGKRRRKTPQPRAD
modifications: Ophiophagus hannah
log2 (fold change) in abundance of the KRAB domain before and after selection (HBEGF locus): highest log (fold change)

B4: dCasX527: catalytically-dead CasX 527, SEQ ID NO: 24 (protein)
chain: QEIKRINKIRRRLVKDSNTKKAGKTRGPMKTLLVRVMTPDLRERLENLRKKPENIPQPISNTSRANLNKLLTDYTEMKKAILHVYWEEFQKDPVGLMSRVAQPASKKIDQNKLKPEMDEKGNLTTAGFACSQCGQPLFVYKLEQVSEKGKAYTNYFGRCNVAEHEKLILLAQLKPEKDSDEAVTYSLGKFGQRALDFYSIHVTKESTHPVKPLAQIAGNRYASGPVGKALSDACMGTIASFLSKYQDIIIEHQKVVKGNQKRLESLRELAGKENLEYPSVTLPPQPHTKEGVDAYNEVIARVRMWVNLNLWQKLKLSRDDAKPLLRLKGFPSFPLVERQANEVDWWDMVCNVKKLINEKKEDGKVFWQNLAGYKRQEALRPYLSSEEDRKKGKKFARYQLGDLLLHLEKKHGEDWGKVYDEAWERIDKKVEGLSKHIKLEEERRSEDAQSKAALTDWLRAKASFVIEGLKEADKDEFCRCELKLQKWYGDLRGKPFAIEAENSILDISGFSKQYNCAFIWQKDGVKKLNLYLIINYFKGGKLRFKKIKPEAFEANRFYTVINKKSGEIVPMEVNFNFDDPNLIILPLAFGKRQGREFIWNDLLSLETGSLKLANGRVIEKTLYNRRTRQDEPALFVALTFERREVLDSSNIKPMNLIGVARGENIPAVIALTDPEGCPLSRFKDSLGNPTHILRIGESYKEKQRTIQAKKEVEQRRAGGYSRKYASKAKNLADDMVRNTARDLLYYAVTQDAMLIFANLSRGFGRQGKRTFMAERQYTRMEDWLTAKLAYEGLSKTYLSKTLAQYTSKTCSNCGFTITSADYDRVLEKLKKTATGWMTTINGKELKVEGQITYYNRYKRQNVVKDLSVELDRLSEESVNNDISSWTKGRSGEALSLLKKRFSHRPVQEKFVCLNCGFETHAAEQAALNIARSWLFLRSQEYKKYQTNKTTGNTDKRAFVETWQSFYRKKLKEVWKPAV
percent editing at the B2M locus measured as indel rate by NGS (human B2M locus): did not exhibit editing

B5: dCasX668: catalytically-dead CasX 668, SEQ ID NO: 59355 (protein)
chain: QEIKRINKIRRRLVKDSNTKKAGKTRGPMKTLLVRVMTPDLRERLENLRKKPENIPQPISNTSRANLNKLLTDYTEMKKAILHVYWEEFQKDPVGLMSRVAQPASKKIDQNKLKPEMDEKGNLTTAGFACSQCGQPLFVYKLEQVSEKGKAYTNYFGRCNVAEHEKLILLAQLKPEKDSDEAVTYSLGKFGQRALDFYSIHVTKESTHPVKPLAQIAGNRYASSPVGKALSDACMGTIASFLSKYQDIIIEHQKVVKGNQKRLESLRELAGKENLEYPSVTLPPQPHTKEGVDAYNEVIARVRMWVNLNLWQKLKLSRDDAKPLLRLKGFPSFPLVERQANEVDWWDMVCNVKKLINEKKEDGKVFWQNLAGYKRQEALRPYLSSEEDRKKGKKFARYQLGDLLLHLEKKHGEDWGKVYDEAWERIDKKVEGLSKHIKLEEERRSEDAQSKAALTDWLRAKASFVIEGLKEADKDEFCRCELKLQKWYGDLRGKPFAIEAENSILDISGFSKQYNCAFIWQKDGVKKLNLYLIINYFKGGKLRFKKIKPEAFEANRFYTVINKKSGEIVPMEVNFNFDDPNLIILPLAFGKRQGREFIWNDLLSLETGSLKLANGRVIEKTLYNRRTRQDEPALFVALTFERREVLDSSNIKPMNLIGVARGENIPAVIALTDPEGCPLSRFKDSLGNPTHILRIGESYKEKQRTIQAKKEVEQRRAGGYSRKYASKAKNLADDMVRNTARDLLYYAVTQDAMLIFANLSRGFGRQGKRTFMAERQYTRMEDWLTAKLAYEGLPSKTYLSKTLAQYTSKTCSNCGFTITSADYDRVLEKLKKTATGWMTTINGKELKVEGQITYYNRYKRQNVVKDLSVELDRLSEESVNNDISSWTKGRSGEALSLLKKRFSHRPVQEKFVCLNCGFETHAAEQAALNIARSWLFLRSQEYKKYQTNKTTGNTDKRAFVETWQSFYRKKLKEVWKPAV
percent editing at the B2M locus measured as indel rate by NGS (human B2M locus): did not exhibit editing

B6: dCasX676: catalytically-dead CasX 676, SEQ ID NO: 59357 (protein)
chain: B5 chain with L169K
percent editing at the B2M locus measured as indel rate by NGS (human B2M locus): did not exhibit editing
